{"source": "paper doi:10.1101/2023.03.23.533937", "about": "“From Microstates to Macrostates in the Conformational Dynamics of GroEL: a Single-Molecule FRET Study” (bioRxiv, 2023)", "binders": {"B1": {"name": "co-chaperone GroES (natural protein, E. coli)", "chain": "MNIRPLHDRVIVKRKEVETKSAGGIVLTGSAAAKSTRGEVLAVGNGRILENGEVKPLDVKVGDIVIFNDGYGVKSEKIDNEEVLIMSESDILAIVEA", "notes": "GroES, co-chaperone of GroEL, E. coli; a heptameric complex; Source and construct of GroES may stand in the supporting information; also called co-chaperonin GroES"}}, "target": "T1, double-ring GroEL construct with the same labeling positions (255C/428C) (E. coli, UniProt P0A6F5 2-548; P0A6F5 2-548, 255C | 428C, AlexaFluor 488 and AlexaFluor 594 attached at the labeling positions 255 and 428 (cysteines))", "T1 construct": "GroEL subunit, E. coli, with cysteines at the labeling sites E255 and D428; unmodified GroEL subunit, E. coli; GroEL has 14 subunits in two heptameric rings; That the remaining subunits are unmodified wild-type GroEL is surmised from 'the same reassembly procedure'; also called double-ring variant; double-ring construct; source: prepared using the same reassembly procedure as the labeled SR1 …", "assay": "intramolecular single-molecule FRET of one labeled subunit (conformational read-out); pulsed-interleaved excitation smFRET on diluted, freely diffusing labeled complexes; 1 mM ATP with a stoichiometric excess of GroES relative to GroEL (also with ADP-BeFx in place of ATP); about 22 °C", "conditions": "both partners purified", "data": [{"binder": "B1", "values": [{"measurement": "binding result", "result": "binds"}]}]}
